Measured values reported in article PMC10697951 (2023).

Molecular target: H2A.Z(D97N/S98K)-containing nucleosome core particle with wild-type H4 (H4K20) (UniProt P06899 1-126; P68431 1-136; P62805 1-103)
Test: MST

B1: SUV420H1(1–390), wild type, with N-terminal 6× His-TEV tag (domain or fragment)
chain: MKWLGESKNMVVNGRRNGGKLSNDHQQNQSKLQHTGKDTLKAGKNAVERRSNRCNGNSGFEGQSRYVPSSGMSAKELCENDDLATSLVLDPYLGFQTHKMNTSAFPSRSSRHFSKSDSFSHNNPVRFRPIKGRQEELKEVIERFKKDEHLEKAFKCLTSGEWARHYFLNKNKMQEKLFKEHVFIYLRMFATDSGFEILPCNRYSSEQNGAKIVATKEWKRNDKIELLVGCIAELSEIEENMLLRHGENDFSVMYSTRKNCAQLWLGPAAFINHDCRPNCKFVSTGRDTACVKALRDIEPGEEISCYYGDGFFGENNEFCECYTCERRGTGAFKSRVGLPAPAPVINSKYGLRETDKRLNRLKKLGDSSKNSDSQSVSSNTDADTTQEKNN
modifications: RED-tris-NTA dye on the His tag
  Kd: 219 nM
